Molecular target: huPrP23-231 (human) (UniProt P04156)

Q: For ICSM-35 (antibody), which IC50 is on record?
A: The IC50 was 0.0104 µM.

Q: What about the Kd of the same substance?
A: The Kd was 0.01 µM.

Q: What about the Ki of the same substance?
A: The Ki was 0.02 µM.

Source: US20140294844A1
